The results in this text go back to patent publication US20240035010, “COMPOSITIONS COMPRISING A VARIANT POLYPEPTIDE AND USES THEREOF” (Arbor Biotechnologies, Inc., published 2024).

Substitutions are numbered along the chain they refer to.

Series [1] has as its target T1, variant nuclease D590G combination (P14R, D32R, I61R, E311R, D590G).
T1 chain: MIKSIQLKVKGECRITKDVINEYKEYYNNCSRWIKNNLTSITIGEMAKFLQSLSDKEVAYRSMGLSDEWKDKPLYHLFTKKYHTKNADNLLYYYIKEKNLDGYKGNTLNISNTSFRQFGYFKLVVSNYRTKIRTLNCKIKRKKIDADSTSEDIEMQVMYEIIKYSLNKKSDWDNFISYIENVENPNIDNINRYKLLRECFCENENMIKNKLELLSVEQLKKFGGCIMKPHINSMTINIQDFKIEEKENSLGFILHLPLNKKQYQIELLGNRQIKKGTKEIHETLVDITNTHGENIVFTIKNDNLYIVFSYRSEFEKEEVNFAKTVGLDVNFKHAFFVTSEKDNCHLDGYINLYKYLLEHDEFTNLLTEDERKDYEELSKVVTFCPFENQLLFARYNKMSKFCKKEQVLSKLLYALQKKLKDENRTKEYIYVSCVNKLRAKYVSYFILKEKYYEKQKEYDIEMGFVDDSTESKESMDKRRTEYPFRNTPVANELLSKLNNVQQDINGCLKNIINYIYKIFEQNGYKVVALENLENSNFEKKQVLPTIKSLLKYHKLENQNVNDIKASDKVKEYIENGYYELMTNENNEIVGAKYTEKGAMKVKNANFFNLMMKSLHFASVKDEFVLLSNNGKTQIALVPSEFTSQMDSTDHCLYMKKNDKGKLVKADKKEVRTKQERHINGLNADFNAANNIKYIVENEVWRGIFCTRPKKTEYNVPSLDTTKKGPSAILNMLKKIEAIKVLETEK
As to the kind of experiment: cell_activity; PAM 5'-TTTG-3'. The note with it: tags: pcDNA3.1 expression. The protocol: (§1) Approximately 16 hours prior to transfection, 25,000 HEK293T cells in DMEM/10% FBS+Pen/Strep (D10 media) were plated into each well of a 96-well plate. On the day of transfection, the cells were 70-90% confluent. For each well to be transfected, a mixture of Lipofectamine 2000™ and Opti-MEM™ was prepared and incubated at room temperature for 5 minutes (Solution 1). After incubation, the Lipofectamine 2000™:Opti-MEM™ mixture was added to a separate mixture containing nuclease plasmid, RNA guide plasmid, and Opti-MEM™ (Solution 2). In the case of negative controls, the RNA guide plasmid was not included in Solution 2. Solutions 1 and 2 were mixed by pipetting up and down, then incubated at room temperature for 25 minutes. Following incubation, the Solution 1 and 2 mixture was added dropwise to each well of a 96-well plate containing the cells. Approximately 72 hours post transfection, cells were trypsinized by adding TrypLE™ to the center of each well and incubating at 37° C. for approximately 5 minutes. D10 media was then added to each well and mixed to resuspend cells. The resuspended cells were centrifuged at 500 g for 10 minutes to obtain a pellet, and the supernatant was discarded. The cell pellet was then resuspended in QuickExtract™ buffer (Lucigen®), and cells were incubated at 65° C. for 15 minutes, 68° C. for 15 minutes, and 98° C. for 10 minutes.
(§2) This Example describes assessment of indel activity at multiple target sites using the wild-type polypeptide of SEQ ID NO: 3 or variant polypeptides of Table 4. The variant polypeptides were cloned into a pcDNA3.1 backbone (Invitrogen), and the cells were transfected as described in Example 7.
(§3) The percentage of NGS reads containing indels (% indels) were calculated. For each variant polypeptide and target, % indels were averaged across two bioreplicates and two technical replicates. These values were then compared to % indels of the wild-type polypeptide of SEQ ID NO: 3.

Series [2] concerns the target T2, variant nuclease E154G combination (P14R, D32R, I61R, E311R, E154G).
T2 chain: T1 chain with E154G, G590D
Description: cell_activity; PAM 5'-TTTG-3'. Conditions: tags: pcDNA3.1 expression. The protocol:
as §1, §2, §3

B1: AAVS1 crRNA ; AAVS1 target (ssRNA ; dsDNA)
RNA: CUUGUUGUAUAUGUCCUUUUAUAGGUAUUAAACAACUGAGAAUGGUGCGUCCUAGG
DNA 1: TGAGAATGGTGCGTCCTAGG
DNA 2: CCTAGGACGCACCATTCTCA
On to B1, for which the results for the indel activity in series [1] and in series [2] were 5.96 fold of WT and 5.79 fold of WT, respectively.
